This note sets out measurements from the DeepSol protein solubility set.

The data set can be described thus: soluble on expression in E. coli; label from the status in PepcDB or PDB records.
As to “MPLKPGANPYKILHLEKGCTDKEIQKAYRAQCLKWHPDKNLDNKEEAERRFIEAKEAFDFLYDKEKREEYDNREERIRMAQEHHSKRMAEADGKRKKLIEDLEKREKEFSNGGKRSADGSTPMTAAQQAKKKKTDQRNFKEEIEAIRRQLEKEVNEEVKQKATLMKTEREKHQKSQEKLTPRLLLKWKTSEGLDYSEDDIRKLFSTFGIISHISSAIEKKDRRKRILEFESGANAWGAELETGNAPMPEITCEWLQPPVETVKKASDEPVKSTNTGANNLEHMSLDDLEAQIMGGF”, the “soluble on expression in E. coli” value is recorded as “not soluble”. Turning to “MAHHHHHHMFYTGINEPRPTAMNFSFDGLHFVSAHTDDAVRFIDVGNMTNTDVIICDAFGVHNVRYTHSSSVVCVAPRFHLDGHLHLLNTETSQFFGEMAYLNDAESEMLPVANTPVYSTLAQCPATDVIGAVVVAKGRLALFHPLISGCIAATPERSIVGSRACVQFSRDGHRIAIGDDHRIVLLDRRSFFGAPLAVLENKHVFTTSTSLTRCKGLEFSADANRLLLTSSSGEVVVYDWLRGETVANYFHGDARRHFVGSADAIGAQHVFPYQSASPILQLTSSMTGGRHLLVYAGCPSNSAASTRQGRLLYELQSKDSDVPVAIAVNPRLQLAATAARSITWWAFHNSVVEAYATLTEAGMTAAD”, the “soluble on expression in E. coli” value is “not soluble”. With “MVFFNRNKIMNKDSTQTWGLKRDITPCFGARLVQEGHRLHFLADRAGFTGSFSEVQTLQLDEAFPHFVAHLELMLLSCELNPRYAHCVTLYRNGLTGEADTLGSHGYVYIAILNRHGFNRHLRVILEHHHHHH”, the “soluble on expression in E. coli” value was “not soluble”.

In the case of “MRLLLAAPHSGAGKTTVSLALLLALRARGLRVQPFKVGPDYIDPTHLEKAAARRPYNLDGFFLDETGLLALFRHGARGADFALIEGVMGLFDGKDPRGEVGSTAQVARLLKAPVALVVDAKGMAGSIAPLALGFRDFHPGVRVVGVFANRVGSERHAEILKEALKAVGLPLLGWLPQDPALALPERHLGLVLAGEVAPPLEALRRAFRVDLEGVLRLAASAPPLPEARPFLPPRRPPRARVAYAWDKAFSFYYPEALELLEALGAELVPFSPLEDEALPKAHALLLGGGYPELFAERLSANVALREAIRRFPGPIVAECGGYMYLSQGLWVGERFFPMVGLVPGEARMAERPVLGYREVEALRDSPVARKGQAFKGHEFHYARLPASPSPAWRRLGGEEVEGYTDGRVLASFVHLYLPAKPEGVERLLGLASRGKAAGAS”, the “soluble on expression in E. coli” value was “soluble”.

“MAIFTDPIREHADFGPGDAEWLHLLVGDWQMVADLAFADLALWFPHPEFGYIALAHVRPSTSHTVFHADFVGEGIRSDLRPLVDKAWNSRSIERSSETSWSSEMALRVEAVPMVRNGRTLAVVTSHMDLSSSRMPSRLELTYRQCAYDLLRMGTLGLWPDFASPTGSRRGAPRVGDGLIRLDAEGIVQYASPNGVSAFRRLGEVESLEGRSLAEVTAGLLKDRRMVDETLPLVVTGRMPWRSEIESRGVSLSLRAIPLRDEQHRFGALVLCRDVSELRRREMELVTKDATIREIHHRVKNNLQTVAALLRMQSRRMVSDEAKQGLEQAMRRVATIALVHETLSQGLTQSVDFDELIGRQFRLSAEVASPSQQVRTERSGLFGELPSDFATPLALVINELVTNAVEHGLEGRTGTVWLLADRADGDGNDEFLTVTIADDGVGLPDGQYTEGLGLQIVRTLVTSELGGSIQWSPREGGGTAVEIVLNLARA”: the “soluble on expression in E. coli” value is listed as “not soluble”. On to “MQRVGNTFSNESRVASRCPSVGLAERNRVATMPVRLLRDSPAAQEDNDHARDGFQMKLDAHGFAPEELVVQVDGQWLMVTGQQQLDVRDPERVSYRMSQKVHRKMLPSNLSPTAMTCCLTPSGQLWVRGQCVALALPEAQTGPSPRLGSLGSKASNLTR”, for which the “soluble on expression in E. coli” value was “soluble”. Consider “MFDIGFSELLLVFVIGLIVLGPQRLPVAVKTVAGWIRALRSLATTVQNELTQELKLQEFQDSLKKVEKASLENLTPELKASMDELRQAAESMKRTYSANDPEQASDEAHTIHNPVVKGNETQHEGVTPAAAETQASAPEQKPEPVKANVPESTETASVATIDAEKKSAAPVVESSPSSSDKPLEHHHHHH”, for which the “soluble on expression in E. coli” value was “not soluble”. As to “MCMDKNVMWLRERINKVIKALEENNMNGYLVNSKEELISKIEELTNSGDIVACGGSMSLFEAGVIDHLRSGRYEFLDRYKEGLKPEDIKKIYRDAFSSDVYFTSTNAITEEGEIYNVDGNGNRVAAMLYGPDKVIIVAGYNKIVENLSEAIQRNRRISAPANAKRLNKKTPCAKVGNCMDCKSPEKICREYTLIRSQSNSNRIHVIFLNEELGYLEHHHHHH”, the “soluble on expression in E. coli” value is on record as “soluble”.

With “MLRAAGNLSKSMMKSQRRFLNLQEFQSKEILEKHGCSVQNFVVASNRKEAEEKWMSFGDHEYVVKAQILAGGRGKGKFINGTKGIGGVFITKEKDAALEAIDEMIGKRLVTKQTTSEGVRVDKVMIAEGVDIKRETYLAVLMDRESNGPVVVASPDGGMDIEAVAEKTPERIFKTPIDIQMGMTEGQSLKIAKDLQFEGKLIGVAAQEIKRLYDLFIAVDATQVEINPLVETADGRVFCVDAKMNFDDSAAYRQKEIFAYETFEEHDPREVDAHQFNLNYIGMDGNIACLVNGAGLAMATMDLIKLHGGEPANFLDVGGAVTEDAVFNAVRIITSDPRVKCVLINIFGGIVNCATIANGVVSAVNKIGLNVPMVVRLEGTNVDAAKQIMKKSGLKILTANNLDEAAAKAVSSLPK”, the “soluble on expression in E. coli” value is “not soluble”.

As to “VKLAAGMGVMSDLEKKFIELEAKLVAQPAGQAMPGKSNIFANNEAWRQEMLKQDPEFFNRLANGQSPEYLWIGCADSRVPANQLLDLPAGEVFVHRNIANQCIHSDISFLSVLQYAVQYLKVKHILVCGHYGCGGAKAALGDSRLGLIDNWLRHIRDVRRMNAKYLDKCKDGDEELNRLIELNVLEQVHNVCATSIVQDAWDAGQELTVQGVVYGVGDGKLRDLGVVVNSSDDISKFYRTKSDSGALKAGNPNAPLVQVTKGGESELDSTMEKLTAELVQQTPGKLKEGANRVFVNNENWRQKMLKQDPQFFSNLAHTQTPEILWIGCADSRVPANQIINLPAGEVFVHRNIANQCIHSDMSFLSVLQYAVQYLKVKRVVVCGHYACGGCAAALGDSRLGLIDNWLRHIRDVRRHNQAELSRITDPKDSLNRLIEINVLEQMHNVCATSIVQDAWDAGQELEVQGVVYGVGDGKLRDMGVVAKANDDIGQIFRTKQ”, the “soluble on expression in E. coli” value is listed as “soluble”. Regarding “MSQEIQPQATQLQPFSQACENNKVPILAVLKSAFANTTRVLEIGSGTGQHAVYFATNLPQLFWQTSDQAEYLEGIKARCLLQGHQLGINNLGFPITLDVTAPWPVNGTHIDAVFSANTLHIMSKSMVEAFFNGLGEYLPQLNTLCIYGPFNYQGHYTSDSNRQFDHFLKQRDSESGIRDIEWIIALAQAQGLTLVEDIAMPTNNRLLHFKHLLALEHHHHHH”, the “soluble on expression in E. coli” value was “soluble”.

“GEIEFIESSKDAGFPVINTPSKTKLEPSVFHQVFEGNKEPAVLRSGDPRLKANFEEAIFSKYIGNVNTHVDEYMLEAVDHYAGQLATLDISTEPMKLEDAVYGTEGLEALDLTTSAGYPYVALGIKKRDILSKKTKDLTKLKECMDKYGLNLPMVTYVKDELRSIEKVAKGKSRLIEASSLNDSVAMRQTFGNLYKTFHLNPGVVTGSAVGCDPDLFWSKIPVMLDGHLIAFDYSGYDASLSPVWFACLKMLLEKLGYTHKETNYIDYLCNSHHLYRDKHYFVRGGMPSGCSGTSIFNSMINNIIIRTLMLKVYKGIDLDQFRMIAYGDDVIASYPWPIDASLLAEAGKGYGLIMTPADKGECFNEVTWTNATFLKRYFRADEQYPFLVHPVMPMKDIHESIRWTKDPKNTQDHVRSLCLLAWHNGEHEYEEFIRKIRSVPVGRCLTLPAFSTLRRKWLDSFHHHHHH”: the “soluble on expression in E. coli” value is “soluble”. For the sequence “MAEDIFRVATVEDAPEFLELLSSAFKSVKELGIDWPSTNADLAMVTENIVNSSAFVLERNGKLISTITVRFPWESSSPPSKYPFVWWFATAPELAGQGIGDKLLTYVEERVLRDTLKAPALTLGTSARKHPWLLDMYLRRGYEVYFEHEEDGDVGVMMRKILIPEKFDATLLGIPSWT”, the “soluble on expression in E. coli” value is “not soluble”. For “GMNANQFLKAVSQLQGWRECAFLLALAERSFPNYALFADAVGLKTGGKMRQLLDLAWDMLQKDVADAAIPQLLSKLETLCPNVDEYDAYGVYPAFDFCQLLEQALLNRLNPNKHRATEASQLATRTVMDFVEMSEGEGMDENELVRVFEHHPLLKDDKLFQRDTVMALYYYRTPKEAFLAELRAGAANDGVSNLGISLEG”, the “soluble on expression in E. coli” value is recorded as “soluble”. In the case of “MDALSRLLTLNAPQGSIDKNCPLGGDWQLPHAAGELSVIRWHTVTQGEAQLEMPTGDAMTLTPGKVVILPQNSAHRLRQSGESPTHIVCGSLRLHTTSRYFLTALPEVLCLAPPPHSPASIWINATILLLQQESERHLPGADVLYSQQCATLFTLAVRDWLSQAGTAKSVLNLLLHPRLGRVILHMLETPAHPWTVETLAQRVHMSRASFAQLFRDVSATTPLAVLTTLRLQIAAQTLSREVLPVMVIAESVGYASESSFHKAFVREFGCTPGEYRKRVSALGR”, the “soluble on expression in E. coli” value is recorded as “not soluble”.

In the case of “MIAMAQQDVKPTRSELINLKKKIKLSESGHKLLKMKRDGLILEFFKILNEARNVRTELDAAFAKSTEKINLASAVNGMVAVRSTAFTAKESPEIQLSGHNIMGVVVPKISSTGVRKSLYERGYGIIGTNSYIDETADAYEDLVEKIITAAELETTMKRLLDEIEKTKRRVNALEFKVIPELIDTMKYIRFMLEEMERENTFRLKRVKARMRDLEHHHHHH”, the “soluble on expression in E. coli” value is given as “not soluble”. The result for “MGWTCERVELLKKFWSEGLSASQIAAQLGGVSRNAVIGKVHRLKLPGRGKTAQGGGRVQKALVGVSSSPVRMRRTPSTVLPTNTASCSVGATALKVDVVVEDVTEVDLPEKSNVVVPISRQLNLLQLSENTCRWPVGDPLSPDFHFCGADSGENSPYCAFHAKIAFQPISERRRIRILEHHHHHH” reads “not soluble”; that for “MNQRILSTLGFDKVKQQLLQFIVTAQGTNEVSELLPIADENKIQSWLNETQDGLKVQRLRGGIPIPKLENIQPHMKRIEIGADLNGIELAQVGRVLSTTSELTRFFDELSENEVDLEHHHHHH”, “not soluble”. Next, “MSLAAKVVPTLQQLAWQQMELTAFLHFGINTFTDSEWGDGKEDPALFNPVELDARQWVRILHEAGFRMVILTAKHHDGFCLWPTATTRHSVASSPWREGKGDVVKEVRAACEEYGMKFGIYLSPWDRNAECYGDSHRYNRFFVSQLTELLTHYGEVHEVWFDGANGEGPNGKRQEYDWETFYDTIRRLQPQAVMAIMGDDVRWVGNERGLGRTTEWSATVLTPGIYSRSKTERNRLGIRENSPDLGSREVLKEAGEIFWYPSEVDVSIRPGWFYHAAEDKKVKSLDKLVDIYFQSVGYNSVLLLNVPPDRRGLIHEADALRLKEWADYLGRAFAHDRVVDSARYAVVQGHAVEEYALESKTHINILMLQEDITKGQRTEAFTVEAWVDGAWQEIGRGTTIGYKRLLRIPAVETDRIRVRIEQCRLPVNLCRVAVYYAEGHHHHHH”: “soluble”; “MGSDKIHHHHHHMIKIKRGLDLPISGAPEQRIEAARPVRSVALIGFDYHGMKPTMAVQVGDRVKLGQVLFTDKKNPSVSYTAPGAGVVSAIHRGEKRVLQSVVIDLDGDEQLEFARYPADKLATLSAEQVRDNLLQSGLWTALRTRPFSKVPDPESSPSSIFVTAIDTQPLAADPQVVIAEQGEAFQAGLTVLGRLARVFLCKAEGVSLPGEALSGVTAQAFSGPHPAGLPGTHIHFLDPVGAGKSVWNLNYQDVIAIGKLFTTGQLWTERVIALAGPVVEKPRLVRTRLGANLDELAAGQLQPGNNRLISGSVLGGRTAHGAYAYLGRYHLQLSCLKEGDQREFLHYLRAGVEKHSLLNVFVSRLLGGKRFAFTTSTNGSPRAMVPVGNYEAVMPLDILPTQLLRYLIVGDTEMAQKLGALELDEEDLALCSYVCAGKYEYGPILRDNLARIEQEG”: “not soluble”.
